According to patent US20050106647A1 (University of Texas, published 2005):

Target: PA-BODIPY conjugate (Bacillus anthracis protective antigen conjugated to BODIPY FL) (Bacillus anthracis, UniProt P13423 30-764)
Sequence (P13423 30-764 limits assumed): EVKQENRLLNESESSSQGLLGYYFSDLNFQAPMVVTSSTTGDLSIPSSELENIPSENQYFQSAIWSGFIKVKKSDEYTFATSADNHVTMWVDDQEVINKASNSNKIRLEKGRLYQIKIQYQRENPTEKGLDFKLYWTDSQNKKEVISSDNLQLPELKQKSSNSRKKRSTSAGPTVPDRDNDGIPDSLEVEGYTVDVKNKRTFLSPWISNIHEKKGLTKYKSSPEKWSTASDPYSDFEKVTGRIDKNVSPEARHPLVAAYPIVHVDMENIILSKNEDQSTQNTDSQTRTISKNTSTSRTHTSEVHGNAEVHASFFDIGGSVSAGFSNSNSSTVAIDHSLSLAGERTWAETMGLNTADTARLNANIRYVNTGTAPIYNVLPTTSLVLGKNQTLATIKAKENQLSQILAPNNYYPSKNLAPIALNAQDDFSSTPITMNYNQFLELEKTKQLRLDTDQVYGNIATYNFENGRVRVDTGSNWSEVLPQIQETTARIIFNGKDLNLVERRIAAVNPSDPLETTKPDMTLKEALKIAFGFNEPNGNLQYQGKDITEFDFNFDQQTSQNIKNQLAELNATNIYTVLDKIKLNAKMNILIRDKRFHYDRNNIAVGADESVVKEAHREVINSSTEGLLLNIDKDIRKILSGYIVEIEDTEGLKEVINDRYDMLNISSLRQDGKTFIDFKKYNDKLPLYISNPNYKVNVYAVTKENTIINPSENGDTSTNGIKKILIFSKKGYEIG

B1: NlpA-[14B7 scFv] fusion anchored on the E. coli inner membrane (scFv)
scFv: CDQSSSDIQMTQTTSSLSASLGDRVTISCRASQDIRNYLNWYQQKPDGTVKLLIYYTSRLQSGVPSRFSGSGSGTDYSLTISNQEQEDIGTYFCQQGNTLPWTFGGGTKLEIKRGGGGSGGGGSGGGGSGGGGSEVQLQQSGPELVKPGASVKISCKDSGYAFSSSWMNWVKQRPGQGLEWIGRIYPGDGDTNYNGKFKGKATLTADKSSSTAYMQLSSLTSVDSAVYFCARSGLLRYAMDYWGQGTSVTVSS
fold higher mean fluorescence intensity compared to controls: ~9 fold
